# B1: soybean-derived lunasin (lunasin purified from soybean white flake) (peptide)
# peptide: SKWQHQQDSCRKQLQGVNLTPCEKHIMEKIQGRGDDDDDDDDDN
# notes: Purified from soybean white flake and released from the lunasin-containing complex with a reducing agent; also called purified lunasin; highly purified soybean-derived lunasin
# B2: synthetic lunasin (peptide)
# peptide: SKWQHQQDSCRKQLQGVNLTPCEKHIMEKIQGRGDDDDDDDDD
# notes: Made by peptide synthesis; It is the 43-residue published form of lunasin; also called synthetic lunasin created by peptide synthesis
# Key:
# human histone 4 = human histone 4 (human, UniProt P62805 2-103); assay: in vitro histone binding assay, histone coated on plate, anti-lunasin polyclonal antibody + HRP secondary, A450
# human histone 3.3 = human histone 3.3 (human, UniProt P84243 2-136); assay: as above
Binder,binding result (human histone 4),binding result (human histone 3.3)
B1,binds,binds
B2,binds,binds

# — patent publication US20120220538A1 (UNIVERSITY OF LOUISVILLE RESEARCH FOUNDATION, published 2012)
